Experimental data as given in patent US7229788B1, “Protease susceptibility II” (The University of Sydney, priority 1998, dated 2007).
Entries after “also recorded” stand apart in the source; their conditions may differ.

Legend:
human serum = settings: for effect of peptide on degradation of SHEL by serum (full-length SHEL, SDS-PAGE, densitometry): molar excess of peptide to SHEL (100:1), preincubated 37° C., SHEL and SHELδ26A; for effect of protease inhibitor on serum degradation of SHEL (amount of full-length SHEL): SHEL incubated with serum at 37° C., SDS-PAGE, 0.5 mM Pefabloc SC, 5 mM PMSF, 25 mM EDTA, Pefabloc PK, 1 unit Hirudin
Procedure: Human serum was obtained from fresh intravenous blood, centrifuged at 2000 g to remove red blood cells and then allowed to clot before serum was removed. Aliquots (20 μl) were stored at −20° C. and thawed when needed. 15 μg tropoelastin in 50 mM sodium phosphate buffer, pH 7.8 was incubated with 0.5 μl serum in a 20 μl reaction for between 1 and 18 hr at 37° C. […] All inhibitors were dissolved in water except PMSF which was dissolved in isopropanol. Reactions were analysed by 8% SDS-PAGE. Serum-digested peptides to be used for sequencing were purified by the addition of 1.5 volumes n-propanol, followed by 2.5 volumes n-butanol and stirred overnight. The organic solvents were removed by rotary evaporation and peptides resuspended in 50 mM sodium phosphate buffer, pH 7.8.
Various dilutions of serum from ½– 1/50 in 50 mM sodium phosphate pH7.8 were used and both SHEL and SHELδ26A were used for each experiment.
Experiments were conducted in parallel with S-GAL using identical procedures (see above). Both SHEL and SHELδ26A were used. Each reaction was analysed by 10% SDS-PAGE. Gels were scanned by densitometry and the volume of full-length SHEL calculated as follows. Scanning densitometry of stained gels was performed using the Molecular Dynamics Personal Densitometer. Images were analysed and quantitated using ImageQuant software (Version 3.2, Molecular Dynamics USA).
10 mg/ml SHEL in 50 mM sodium phosphate pH7.8 and 150 mM NaCl was allowed to coacervate at 37° C. until cloudy before adding human plasma kallikrein (6×10^−4U), thrombin (1U), plasmin (1.5×10^−5U), trypsin (2×10^−3U), HLE (1.6×10^−3U) and serum (0.75 μl) for one hour. Control reactions were performed at 16° C. for three hours. Extent of proteolysis was monitored by SDS-PAGE.

bovine trypsin = molecular target: T1, bovine trypsin (Bos taurus, UniProt P00760); test: Trypsin digestion of SHEL, SDS-PAGE; assay type: biochemical; settings: molar excess of peptide to SHEL (100:1); SHEL and SHELδ26A
T1 construct: purchased Boehringer-Mannheim
T1 sequence (P00760 24-246): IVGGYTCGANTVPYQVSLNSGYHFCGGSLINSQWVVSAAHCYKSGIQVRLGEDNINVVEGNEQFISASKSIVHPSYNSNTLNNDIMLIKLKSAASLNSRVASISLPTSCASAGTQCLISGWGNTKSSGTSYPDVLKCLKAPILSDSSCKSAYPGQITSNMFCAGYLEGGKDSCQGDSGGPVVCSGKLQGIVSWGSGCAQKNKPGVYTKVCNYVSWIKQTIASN
Procedure: (§1) A range of enzyme concentrations was originally used to determine the optimal amount for subsequent experiments. Thrombin (0.01–1U), human plasma kallikrein (3×10^−4 to 3×10^−3U), human plasmin (7×10^−5 to 4×10^−7U), bovine trypsin (5×10^−4 to 4×10^−3U), and human leukocyte elastase (1.6×10^−4 to 3.2×10^−3U) were added to 10 μg SHEL or SHELδ26A in 50 mM sodium phosphate buffer pH 7.8 in a total volume of 20 μl. All reactions were performed at 37° C. for one hour. Gelatinase A and B were activated using 0.8 mM APMA at 37° C. for 30 minutes (gelatinase A) or 37° C. for 45 minutes (gelatinase B). Gelatinase A (4×10^−3−4×10^−2) and gelatinase B (2×10^−5−1×10^−4) was added to […] SHEL or SHELd26A in a total volume of […]. Gelatinase B reactions were performed in the presence of 0.75 mM APMA. The degradation profile was analysed by 8, 10 or 12% SDS-PAGE.
(§2) Both SHEL and SHELδ26A were used. Each reaction was analysed by 10% SDS-PAGE.
(§3) Extent of proteolysis was monitored by SDS-PAGE.

human thrombin = molecular target: T2, human thrombin (Homo sapiens, UniProt P00734); test: Thrombin digestion of SHEL, SDS-PAGE; assay type: biochemical; settings: for effect of peptide on degradation of SHEL by thrombin (full-length SHEL, SDS-PAGE, densitometry): molar excess of peptide to SHEL (100:1), SHEL and SHELδ26A
T2 construct: purchased Sigma
Procedure: as §1, §2, §3
Cleavage of GST-SHEL bound to glutathione agarose was performed by washing and resuspending beads in 1× thrombin cleavage buffer (50 mM Tris-HCl pH8.0, 150 mM NaCl, 2.5 mM CaCl2) and adding human thrombin (Sigma) from 0.1 to 1% (w/v) thrombin:fusion protein at 25° C. for one hour (Smith and Johnston 1988). Soluble bacterial lysates used as substrate were incubated similarly with 1× thrombin cleavage buffer, added from a 10× stock. GST (26 kDa) was evident on beads by SDS-PAGE but SHEL could not be identified in the supernatant in numerous experiments. To determine whether thrombin was degrading SHEL, the entire cell lysate was subject to cleavage with increasing concentrations of thrombin. […] GST was clearly present. However, with 0.01U thrombin a band at approximately 64 kDa could be discerned which may represent SHEL although this was not nearly as intense as the GST band.

human plasma kallikrein = molecular target: T3, human plasma kallikrein (Homo sapiens, UniProt P03952); test: Kallikrein digestion of SHEL, SDS-PAGE; assay type: biochemical; settings: molar excess of peptide to SHEL (100:1); SHEL and SHELδ26A
T3 construct: purchased Sigma
T3 sequence (P03952 20-638): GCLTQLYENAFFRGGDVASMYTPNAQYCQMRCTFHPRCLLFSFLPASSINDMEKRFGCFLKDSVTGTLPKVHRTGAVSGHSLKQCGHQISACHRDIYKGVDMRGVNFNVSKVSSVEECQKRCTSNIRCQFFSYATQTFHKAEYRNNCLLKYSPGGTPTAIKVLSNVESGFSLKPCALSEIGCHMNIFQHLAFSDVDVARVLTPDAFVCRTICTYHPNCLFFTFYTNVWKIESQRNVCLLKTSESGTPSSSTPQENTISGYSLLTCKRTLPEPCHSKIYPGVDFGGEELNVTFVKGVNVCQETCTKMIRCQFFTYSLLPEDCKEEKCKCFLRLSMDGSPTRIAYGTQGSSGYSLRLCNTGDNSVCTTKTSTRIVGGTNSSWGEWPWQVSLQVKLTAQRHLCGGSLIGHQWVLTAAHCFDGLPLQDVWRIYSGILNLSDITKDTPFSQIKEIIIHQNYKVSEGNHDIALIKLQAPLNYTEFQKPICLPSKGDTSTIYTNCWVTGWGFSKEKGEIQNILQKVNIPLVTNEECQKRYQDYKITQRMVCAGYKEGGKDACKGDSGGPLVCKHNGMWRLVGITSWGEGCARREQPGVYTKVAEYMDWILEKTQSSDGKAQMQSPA
Procedure: as §1, §2, §3

human plasmin = molecular target: T4, human plasmin (Homo sapiens, UniProt P00747); test: Plasmin digestion of SHEL, SDS-PAGE; assay type: biochemical; settings: molar excess of peptide to SHEL (100:1); SHEL and SHELδ26A
T4 construct: purchased Sigma
T4 sequence (P00747 97-810): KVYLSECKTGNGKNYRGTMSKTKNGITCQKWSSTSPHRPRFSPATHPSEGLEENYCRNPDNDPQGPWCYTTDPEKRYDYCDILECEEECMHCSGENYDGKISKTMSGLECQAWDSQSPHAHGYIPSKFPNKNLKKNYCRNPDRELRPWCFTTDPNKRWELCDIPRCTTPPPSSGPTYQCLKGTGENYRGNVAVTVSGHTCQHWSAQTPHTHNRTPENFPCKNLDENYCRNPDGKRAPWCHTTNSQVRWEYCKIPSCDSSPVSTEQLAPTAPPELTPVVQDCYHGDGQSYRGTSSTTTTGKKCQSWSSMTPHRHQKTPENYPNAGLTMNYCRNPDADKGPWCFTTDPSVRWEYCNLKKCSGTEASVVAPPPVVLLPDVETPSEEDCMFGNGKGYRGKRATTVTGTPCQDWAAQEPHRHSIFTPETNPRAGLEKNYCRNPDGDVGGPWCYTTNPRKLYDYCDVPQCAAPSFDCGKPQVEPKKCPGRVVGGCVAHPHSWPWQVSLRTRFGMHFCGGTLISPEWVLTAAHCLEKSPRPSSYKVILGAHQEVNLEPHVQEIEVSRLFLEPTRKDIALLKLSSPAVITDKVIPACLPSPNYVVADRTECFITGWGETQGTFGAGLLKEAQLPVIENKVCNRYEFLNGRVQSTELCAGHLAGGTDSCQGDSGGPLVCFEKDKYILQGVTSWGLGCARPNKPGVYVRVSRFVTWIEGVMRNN
Procedure: as §1, §2, §3

[1] = molecular target: T5, human leukocyte elastase (HLE) (Homo sapiens, UniProt P08246); test: HLE digestion of SHEL, SDS-PAGE; assay type: biochemical; settings: molar excess of peptide to SHEL (100:1); SHEL and SHELδ26A
T5 construct: purchased Sigma
T5 sequence (P08246 30-267): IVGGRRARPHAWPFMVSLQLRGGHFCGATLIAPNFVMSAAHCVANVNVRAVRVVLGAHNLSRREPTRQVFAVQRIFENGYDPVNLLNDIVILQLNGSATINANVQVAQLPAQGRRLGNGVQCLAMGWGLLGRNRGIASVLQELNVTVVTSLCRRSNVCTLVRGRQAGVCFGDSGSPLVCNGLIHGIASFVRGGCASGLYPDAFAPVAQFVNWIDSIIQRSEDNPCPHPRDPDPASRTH
Procedure: as §1, §2, §3

kallikrein = molecular target: T6, kallikrein (Homo sapiens, UniProt P03952); assay type: biochemical
T6 construct: from tissue; host or cells: human serum
T6 sequence (P03952 20-638): as the sequence (P03952 20-638) above

gelatinase A = gelatinase A (Homo sapiens, UniProt P08253)
Sequence of gelatinase A (P08253 110-660): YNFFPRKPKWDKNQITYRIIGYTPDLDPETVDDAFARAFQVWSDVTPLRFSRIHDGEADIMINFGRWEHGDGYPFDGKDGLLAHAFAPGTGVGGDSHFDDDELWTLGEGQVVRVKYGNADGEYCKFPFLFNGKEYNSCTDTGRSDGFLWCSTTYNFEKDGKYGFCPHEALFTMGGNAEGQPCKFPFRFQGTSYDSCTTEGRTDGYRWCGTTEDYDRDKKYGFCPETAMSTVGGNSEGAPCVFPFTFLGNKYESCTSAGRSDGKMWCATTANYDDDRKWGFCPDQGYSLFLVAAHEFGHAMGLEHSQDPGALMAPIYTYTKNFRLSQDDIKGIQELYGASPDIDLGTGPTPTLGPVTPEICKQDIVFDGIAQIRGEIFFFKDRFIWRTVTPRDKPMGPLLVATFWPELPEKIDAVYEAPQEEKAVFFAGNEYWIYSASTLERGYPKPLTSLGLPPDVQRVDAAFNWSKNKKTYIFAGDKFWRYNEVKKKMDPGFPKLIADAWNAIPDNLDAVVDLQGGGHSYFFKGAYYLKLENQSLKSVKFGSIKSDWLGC

Compound | effect of peptide on degradation of SHEL by serum (full-length SHEL, SDS-PAGE, densitometry) (human serum) | effect of peptide on degradation of SHEL by trypsin (full-length SHEL, SDS-PAGE, densitometry) (bovine trypsin) | effect of peptide on degradation of SHEL by thrombin (full-length SHEL, SDS-PAGE, densitometry) (human thrombin) | effect of peptide on degradation of SHEL by kallikrein (full-length SHEL, SDS-PAGE, densitometry) (human plasma kallikrein) | effect of peptide on degradation of SHEL by plasmin (full-length SHEL, SDS-PAGE, densitometry) (human plasmin) | effect of peptide on degradation of SHEL by HLE (full-length SHEL, SDS-PAGE, densitometry) [1] | effect of protease inhibitor on serum degradation of SHEL (amount of full-length SHEL) (human serum) | further results
N-AAKAQLRAAAGLGA-C (KAQLRAAAGLGAGI; listed as Homo sapiens) [SPS-peptide] | more full-length SHEL was evident compared with controls | more full-length SHEL was evident compared with controls | more full-length SHEL using thrombin and HLE but to a lesser extent | more full-length SHEL was evident compared with controls | more full-length SHEL was evident compared with controls | more full-length SHEL using thrombin and HLE but to a lesser extent | – | –
Hirudin [reference compound] | – | – | – | – | – | – | did not appear to significantly inhibit degradation | inhibition of thrombin degradation of SHEL by inhibitor (human thrombin; not shown): degradation was inhibited
O=S(=O)(F)Cc1ccccc1 [PMSF] | – | – | – | – | – | – | protected tropoelastin from cleavage | effect of inhibitor on second cleared zone in SHEL zymogram digested with serum (kallikrein): second cleared zone was not seen
O=C(O)CN(CCN(CC(=O)O)CC(=O)O)CC(=O)O [EDTA] | – | – | – | – | – | – | appeared to promote digestion | effect on 64 kDa zone in gelatin zymogram digested with serum (gelatinase A): 64 kDa zone was not observed
Cl.NCCc1ccc(S(=O)(=O)F)cc1 [Pefabloc SC] | – | – | – | – | – | – | protected tropoelastin from cleavage | –
N-VVGSPSAQDEASPLS-C (listed as Homo sapiens) [S-GAL, reference compound] | did not show any significant or consistent inhibition | did not show any significant or consistent inhibition | some inhibition could be seen | did not show any significant or consistent inhibition | did not show any significant or consistent inhibition | consistently inhibited; also recorded: significant and reproducible inhibition was seen | – | –
